Protein stability index data for 94 variants are collected here from the supplement of paper PMC10567573.

The chains are these.
B1: STX5 (parent)
chain: RSEFTLMAKRIGKDLSNTFAKLEK
B2: ZNF649 (parent)
chain: EHERAHRGEKPHGCSLCGKAFYKR
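Further: lentivirally expressed fusions sorted by FACS into six bins by GFP to DsRed ratio, PSI derived from sequencing read proportions per bin multiplied by bin number.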

Variants of B1 are the subject of the first series. Put plainly: protein stability index of a GFP-peptide fusion (GPS, HEK-293T) (PSI 1-6); higher = more stable. The settings on record: c terminus: a fixed tail appended.
As for RSEFTLMAKRIGKDLSNTFAKGEK [L22G], the protein stability index stood at 3.27.
Still for that read-out and setting: with RSEFTLMAKRIGKDLSNTFAKVEK [L22V] the figure was 1.9; with RSEFTLMAKRIGKDLSNTFAKIEK [L22I], 4.01; with RSEFTLMAKRIGKDLSNTFAKNEK [L22N], 3.15.
On the same count and under the same terms, the result for RSEFTLMAKRIGKDLSNTFAKKEK [L22K] reads 2.47; that for RSEFTLMAKRIGKDLSNTFAKTEK [L22T], 2.7; that for RSEFTLMAKRIGKDLSNTFAKEEK [L22E], 3.74.
Still for that read-out and setting: the result for RSEFTLMAKRIGKDLSNTFAKCEK [L22C] reads 1.79; that for RSEFTLMAKRIGKDLSNTFAKREK [L22R], 2.57.
With RSEFTLMAKRIGKDLSNTFAKHEK [L22H], the protein stability index was determined as 2.7.
Take RSEFTLMAKRIGKDLSNTKAKLEK [F19K]: the protein stability index was 2.71.
As for RSEFTLMAKRIGKDLSNTRAKLEK [F19R], the protein stability index worked out at 3.88.
With RSEFTLMAKRIGKDLSNTCAKLEK [F19C], the protein stability index is 2.69.
Consider RSEFTLMAKRIGKDLSNTPAKLEK [F19P], for which the protein stability index worked out at 3.94.
With RSEFTLMAKRIGKDLSNTNAKLEK [F19N], the protein stability index is 3.42.
RSEFTLMAKRIGKDLSNTDAKLEK [F19D]: the protein stability index worked out at 4.69.
In the case of RSEFTLMAKRIGKDLSNTSAKLEK [F19S], the protein stability index worked out at 3.85.
Take RSEFTLMAKRIGKDLSNTWAKLEK [F19W]: the protein stability index stood at 2.48.
Take RSEFTLMAKRIGKDLSNTEAKLEK [F19E]: the protein stability index came out at 4.74.
With RSEFTLMAKRIGKDLSNTYAKLEK [F19Y], the protein stability index was determined as 2.38.
On to RSEFTLMAKRIGKDLSNTGAKLEK [F19G], for which the protein stability index is 3.57.
Still for that read-out and setting: with RSEFTLMAKRIGKDLSNTVAKLEK [F19V] the figure was 1.96; with RSEFTLMAKRIGKDLSNTMAKLEK [F19M], 1.62.
Still for that read-out and setting: with RSEFTLMAKRIGKDLSNTHAKLEK [F19H] the figure was 3.27.
Still for that read-out and setting: the result for RSEFTLMAKRIGKDLSNTIAKLEK [F19I] reads 2.24; that for RSEFTLMAKRIGKDLSNTAAKLEK [F19A], 2.79; that for RSEFTLMAKRIGKDLSNTTAKLEK [F19T], 3.8.
As for RSEFTLMAKRIGKDLSNTQAKLEK [F19Q], the protein stability index turned out to be 3.44.
As to RSEFTLMAKRIGKDLSNTFVKLEK [A20V], the protein stability index was found to be 2.24.
Take RSEFTLMAKRIGKDLSNTFNKLEK [A20N]: the protein stability index amounted to 1.84.
For the variant RSEFTLMAKRIGKDLSNTFMKLEK [A20M], the protein stability index is 2.64.
The same measure, in the same setting: the result for RSEFTLMAKRIGKDLSNTFCKLEK [A20C] reads 3.2; that for RSEFTLMAKRIGKDLSNTFIKLEK [A20I], 1.63.
Turning to RSEFTLMAKRIGKDLSNTFSKLEK [A20S], the protein stability index worked out at 1.32.
With RSEFTLMAKRIGKDLSNTFEKLEK [A20E], the protein stability index is 1.58.
As for RSEFTLMAKRIGKDLSNTFWKLEK [A20W], the protein stability index was found to be 2.44.
Take RSEFTLMAKRIGKDLSNTFDKLEK [A20D]: the protein stability index was found to be 2.15.
Consider RSEFTLMAKRIGKDLSNTFTKLEK [A20T], for which the protein stability index stood at 2.69.
As for RSEFTLMAKRIGKDLSNTFPKLEK [A20P], the protein stability index is 3.3.

In another series the parent is B2. The series is described as above. The following applies: c terminus: a fixed tail appended.
Regarding HHERAHRGEKPHGCSLCGKAFYKR [E1H], the protein stability index is 1.86.
As for IHERAHRGEKPHGCSLCGKAFYKR [E1I], the protein stability index is 1.49.
For the variant WHERAHRGEKPHGCSLCGKAFYKR [E1W], the protein stability index came out at 1.85.
For the variant MHERAHRGEKPHGCSLCGKAFYKR [E1M], the protein stability index worked out at 1.88.
With QHERAHRGEKPHGCSLCGKAFYKR [E1Q], the protein stability index is 2.07.
For NHERAHRGEKPHGCSLCGKAFYKR [E1N], the protein stability index was found to be 1.69.
With KHERAHRGEKPHGCSLCGKAFYKR [E1K], the protein stability index is 3.37.
For RHERAHRGEKPHGCSLCGKAFYKR [E1R], the protein stability index stood at 1.7.
Same read-out and setting: the result for YHERAHRGEKPHGCSLCGKAFYKR [E1Y] reads 2.38; that for PHERAHRGEKPHGCSLCGKAFYKR [E1P], 2.15; that for THERAHRGEKPHGCSLCGKAFYKR [E1T], 3.46.
Consider VHERAHRGEKPHGCSLCGKAFYKR [E1V], for which the protein stability index is 2.77.
Regarding DHERAHRGEKPHGCSLCGKAFYKR [E1D], the protein stability index amounted to 2.2.
For AHERAHRGEKPHGCSLCGKAFYKR [E1A], the protein stability index stood at 2.16.
Turning to EHEIAHRGEKPHGCSLCGKAFYKR [R4I], the protein stability index is 1.91.
With EHEQAHRGEKPHGCSLCGKAFYKR [R4Q], the protein stability index turned out to be 1.59.
Take EHECAHRGEKPHGCSLCGKAFYKR [R4C]: the protein stability index is 3.31.
As to EHEPAHRGEKPHGCSLCGKAFYKR [R4P], the protein stability index amounted to 2.6.
As for EHEGAHRGEKPHGCSLCGKAFYKR [R4G], the protein stability index came to 2.55.
Consider EHEMAHRGEKPHGCSLCGKAFYKR [R4M], for which the protein stability index was 2.08.
Regarding EHENAHRGEKPHGCSLCGKAFYKR [R4N], the protein stability index stood at 2.23.
On the same count and under the same terms, with EHEHAHRGEKPHGCSLCGKAFYKR [R4H] the figure was 2.05; with EHEVAHRGEKPHGCSLCGKAFYKR [R4V], 2.93; with EHETAHRGEKPHGCSLCGKAFYKR [R4T], 1.95.
Regarding EHEEAHRGEKPHGCSLCGKAFYKR [R4E], the protein stability index was 2.14.
Turning to EHEAAHRGEKPHGCSLCGKAFYKR [R4A], the protein stability index came to 1.97.
With EFERAHRGEKPHGCSLCGKAFYKR [H2F], the protein stability index worked out at 2.8.
As for EIERAHRGEKPHGCSLCGKAFYKR [H2I], the protein stability index worked out at 2.
As to ELERAHRGEKPHGCSLCGKAFYKR [H2L], the protein stability index turned out to be 1.6.
Consider EMERAHRGEKPHGCSLCGKAFYKR [H2M], for which the protein stability index turned out to be 2.06.
With EPERAHRGEKPHGCSLCGKAFYKR [H2P], the protein stability index is 1.98.
For ENERAHRGEKPHGCSLCGKAFYKR [H2N], the protein stability index came to 1.93.
Regarding EWERAHRGEKPHGCSLCGKAFYKR [H2W], the protein stability index amounted to 1.03.
As to ECERAHRGEKPHGCSLCGKAFYKR [H2C], the protein stability index was found to be 2.01.
Consider ESERAHRGEKPHGCSLCGKAFYKR [H2S], for which the protein stability index stood at 1.75.
For EDERAHRGEKPHGCSLCGKAFYKR [H2D], the protein stability index came out at 2.
For EYERAHRGEKPHGCSLCGKAFYKR [H2Y], the protein stability index is 1.65.
On the same count and under the same terms, the result for EVERAHRGEKPHGCSLCGKAFYKR [H2V] reads 1.07; that for ETERAHRGEKPHGCSLCGKAFYKR [H2T], 3.15.
On to EQERAHRGEKPHGCSLCGKAFYKR [H2Q], for which the protein stability index worked out at 3.21.
Regarding EGERAHRGEKPHGCSLCGKAFYKR [H2G], the protein stability index came to 1.02.
Turning to EHTRAHRGEKPHGCSLCGKAFYKR [E3T], the protein stability index came out at 1.89.
On to EHARAHRGEKPHGCSLCGKAFYKR [E3A], for which the protein stability index amounted to 1.5.
Take EHYRAHRGEKPHGCSLCGKAFYKR [E3Y]: the protein stability index stood at 1.95.
Turning to EHDRAHRGEKPHGCSLCGKAFYKR [E3D], the protein stability index turned out to be 2.01.
On the same count and under the same terms, the result for EHCRAHRGEKPHGCSLCGKAFYKR [E3C] reads 2.74; that for EHGRAHRGEKPHGCSLCGKAFYKR [E3G], 1.81; that for EHFRAHRGEKPHGCSLCGKAFYKR [E3F], 2.67.
As to EHRRAHRGEKPHGCSLCGKAFYKR [E3R], the protein stability index turned out to be 1.96.
Consider EHHRAHRGEKPHGCSLCGKAFYKR [E3H], for which the protein stability index stood at 2.72.
Regarding EHVRAHRGEKPHGCSLCGKAFYKR [E3V], the protein stability index was determined as 3.49.
For the variant EHNRAHRGEKPHGCSLCGKAFYKR [E3N], the protein stability index was 2.47.
EHIRAHRGEKPHGCSLCGKAFYKR [E3I]: the protein stability index worked out at 1.78.
With EHMRAHRGEKPHGCSLCGKAFYKR [E3M], the protein stability index was determined as 1.61.
The same measure, in the same setting: with EHLRAHRGEKPHGCSLCGKAFYKR [E3L] the figure was 1.92.
